Data reported in the nanobody polyreactivity screen of Harvey et al. (2022).

test: yeast display, Sf9 membrane polyspecificity reagent, FACS + sequencing; frameworks hold sequencing errors
In short: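 Using colony PCR, genes from sorted yeast display clones were amplified, then sequenced on MiSeq at 2 × 250 and filtered by CDR length. The clones had been stained with 10% biotinylated, detergent-solubilized Sf9 membrane reagent for 1 hour at 4 °C and sorted by FACS into low and high (top ~1%) gates on anti-HA and streptavidin fluorescence. Polyreactivity labels come from the gate of origin.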

Sequence	polyreactivity (PSR sort gate)
QVQLVESGGGLVQAGGSLRLSCAASGSNFRFYVMGWYRQAPGKERELVAAISIGGSTNYADSVKGRFTISRDNAKNSVYLQMNSLKPEDTAVYYCAADYWYGAGLPHGTEFDYWGQGTQVTVSS	low polyreactivity
QVQLVESAGGLVQAGGSLRLSCAATGRTFYVNAMGWYRQAPGKERELVAAISSGDSSTYYADSVKGRFTSSRDNAKNTVYLQMNSLKPEDTAVYYCAAEVWVYFEYEYWGQGTQVTVSS	high polyreactivity
QVQLVESGGGLVQAGGSLRLSCAASGRTFRYYAMGWYRQAPGKERELVASITKRGGSTYYADSVKGRFTISRDNAKNTVYLQMNSLKPEDTAVYYCNTRTGSFFQGYYWGQGTQVTVSS	high polyreactivity
QVQLVESGGGLVQAGGSLRLSCAASGSTFSSYAMGWYRQAPGKERELVAAISTSGGRTYYADSVKGRFTISRDNAKNTVYLQMNSLKPEDTAVYYCAKKGIGYVRYYYWGQGTQVTVSS	high polyreactivity
QVQLVYSGGGLVQAGGSLRLSCAASGSLFYHNAMGWYRQAAGKEMELDADISWSGGSTYYADSVKGRFTISRDYAKNTVYLQMNSLKPEDTAVYYGNTDARYDEYDEFDYWGQGTQVTVSS	low polyreactivity
QGQLVESGGGLVQAGGSLRLSCAASGFIFFYYAMGWYRQAPRKERELVATISANGGNTYYADSVKGRFTISRDNAKNTVYLQMNSLKPEDTAVSYCARYTWYLRDWQWYYWGDEDYWGQGTQVTVSS	high polyreactivity
QVQLVESGGGLVQAGGSLRLSCAASGSTFSSYGMGWYRQAPGKERELVASITIRGGSTYYADSVKGRFTISRDNAKNTVYLQMNSLKPEDTAVYYCAADVTNRGTWVIYGYYYWGQGTQVTVSS	low polyreactivity
QVQLVESGGGLVQAGGSLRLSCAASGSIFSAYSMGSYRQAHGKEREFVAAISKSGSSTYYADSVKGRFTISRDNAKNTVYLQMNSLKPEDTAVYYCAAESSSYYGYYIYYYWGQGTQVTVSS	high polyreactivity
QVQLVESGGGLVQAGGSLRLSCAASGSTLYRYTMGWYRQAPGKERELVAAISSGGNTYYADSVKGRFTISRDNAKNTVYLQMNSLKPEDTAVYYCAAEDSVYIPYYDAYDYWGQGTQVTVSS	low polyreactivity
QVQLVESAGGLVQAGGSLRLSCAASGSIFRAYSMGWYRQAPGKERELVAAISWGGGSTSYADSVKGRFTISRDNAKNTVYLQMNSLQPEDTAVYYCNKVSFSKRRDYYWGQGTQVTVSS	high polyreactivity
QVQLVESGGGLVQAGGSLRLSCAASGSSFPGNAMGWYRQAPGKERELVARINDGADTNYADSVKGRFTISRDNAKNTVYLQMNSLKPEDTAVYYCAKPYYDGRTHFDSWGQGTQVTVSS	low polyreactivity
QVQLVESGGGLDQAGGSLRLSSAASGSIVDSNAMGWYRQAPGKASEMVASITSSGGSTYYADSVKGRFTISRDNAKNTVYLQMNSVKPEDTAVYYCAPKQAQSRYRLWSTSGYWGQGTQVTVSS	high polyreactivity
QVQLVESGGGLVQAGGSLRLSCAASGYTFEYNAMGWYRQATGKEREFVATITASGDSTYYADSVKGRFTISRDNAKNTVYLQMNSLKPEDTAVYYCATEKRDVYFTAKYDYWGQGTQVTVSS	low polyreactivity
QVQLVESGGGLVQAGGSLRLSCAASGSIFGPNAMGWYRQAPGKESELVAAITLSGGSTYYADSVKGRFTISRDNAKNTVYLQMYSLKPEDTAVYYCNADLLPADAPLWVTGGDYWGQGTQVTVTS	low polyreactivity
QVQLVESGGGLVQAGGSLRLSCAASGSIFERNAMGWYRQAPGKERELVAVITGSGGSTYYADSVKGRFTISRDNAKNTVYLQMNSLKPEDTAVYYCAAPVHTASGRWVPGYYYWGQGTQVTVSS	high polyreactivity
QVQLVESGGGLVQAGGSLRLSCAASGRTFLSYAMGWYRPAPGKERELVAAIRWRTGSRTYYADSVKGRFTISRDNAKNKVYLQLNSLKPEDTAVYLCANTYWYPYGYWGQGTQVTLSS	low polyreactivity
QVQLVESGGGLVQAGGSLRLSCAASGSIIYLYAMGWYRQAPGKERELVAAINDDAGSTYYADSVKGRFTISRDNAKNTVYLQMNSLKPEDTAVYYCNAGSRSTEYDYWGQGTQVTVSS	low polyreactivity
QGQLVESGGGLVQAGGSLRLSCAASGIILSAYALGWYRQAPGNERELVAAITRRGGRTYYADSVKGRFTISRDNAKNTVYLQMNSLKPEDTAVYYCATVQSGRVRTYDYWGQGTQVTVSS	high polyreactivity
QVQLVESGGGLVQAGGSLRLSCAASGSILRYYAMGWYRQAPGKERELVADISTSGGSTYYADSVKGRFTISRDNAKNTFDLQMISLKPEDTAVYYCASAYYRYLIYIGKFDYWGQGTQVTVSS	high polyreactivity
QVQLVESGGGLVQAGGSLRLSCAASGFIIGYYAMGWYRQAPGKERDLVAAISSTGGSTYYADSVKGRFTISRDNAMNTVYLQMNSLKPEDTAVYYCAKRFAYYRYHPGYDYWGQVTQVTVSS	high polyreactivity
QVQLVESGGGLVQAGGSLRLSCAASGSIFYTNAMGWYRQAPGKERELVAAISCSGDSTYYADSVKGRFTISRDNAKNTVYLQMNSLKPEDTAVYYCNADRRSYNGFRYYYWGQGTQVTVSS	low polyreactivity
QVQLVESGGGLDQAGGSLRLSCAASGRIFSYYAMGWYRQAPGKERELVAVISRRGDNTYYADSVKGRFTISRDNAKKTVYFQMNSLKPEDTAVYYCAARFGYLTFYSSGYYWGQGTQVTVSS	high polyreactivity
QVQLVESGGRLVQAGRSLRLSCAASGSIFHDYAMGWYRQAPGKERELVAVISTSGGSTYYADSVKGRFTISRDNAKNTVYCQMNRLKPEDTAFYYCNARTVGPYPSHAALEYDSWGQGTQVTVSS	low polyreactivity
QVQLVESGGGLVQAGGRLRLSCAASGSIFSSYAMGWYRQAPGKERELVAAITNSGVSTYYADSVKGRFTISRDNAKYTVYLQMNSLKPEVTASITALKTVVRLPTVYTPLLNWYYYWGQGTQVTVSS	low polyreactivity
QVQLVESGGGLVQAGGSLRLSCAASGITFGRYAMGWYSQAPGKARELVASITVNGGRTYYADSVKGRFTISRDNAKNTVNLQMNSLKPEDTAVSYCAAERRNSYVLLFKYNYWGQGTQVTVSS	low polyreactivity
QVQLVESVGGLGQARVRLRLSCAASGITFYRYAMGWYRQAPGKERELVAAITSRGTSTYYADSVKGRFTISRDNAKNTVYLQMNSLKPEDTAVYYCAAVLFVGDGGYDYWGQGTQVTVSS	high polyreactivity
QVQLVESGGGLVQAGGSLRLSCAASGLIFGWYAMGWYRQAPGKERELVAGISGSGGITYYADSVKGRFTISRDNAKNTVYLQMNSLKPEDTAVYYCNARYPRYYRGVIQYDFWGQGTQVTVSS	low polyreactivity
QVQLQETGGGLVQVGGSQRLSCAASGNIFYNYAMGWYRHAQGKEREFDATINHGTSINDADSVKGRFTISRDNAKNTVYLQMNSLTPEDTAVYYCAADLSWTDNLFYWGQGTQETVSS	low polyreactivity
QVQLVESGGGLVQAGGSLRLSCAASGRNFENNAMGWYRQAPGKERELVAAITSSGGRTYYADSVKGRFTISRDNAKNTVYLQMNSLKPEDTAVYYCAADNFAPEFYYWGQGTQVTVSS	low polyreactivity
QVQLVESGGGLVHAGGSLRLSCAASRSTFALNAMGWYRPAPGKERELVAAISRRGGSTYYADSVKGRFTISRDNAKNSVYLQMNSLKPEDTAVYYCAARYKRFTRFDYWGQGTQVTVSS	high polyreactivity
